In paper PMC3155616 (Cell, 2011):

Biological target: E. coli SSB (wild type single-stranded DNA binding protein, homotetramer) (E. coli, UniProt P0AGE0 1-178)
Test: ITC

Chain of E. coli SSB (wild type single-stranded DNA binding protein, homotetramer) (P0AGE0 whole entry): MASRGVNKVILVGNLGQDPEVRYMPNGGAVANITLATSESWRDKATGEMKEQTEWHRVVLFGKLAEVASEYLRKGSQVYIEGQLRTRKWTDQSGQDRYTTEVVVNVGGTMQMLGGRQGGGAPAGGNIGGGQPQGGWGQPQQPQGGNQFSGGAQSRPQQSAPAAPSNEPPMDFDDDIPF

B1: E. coli RecO protein (natural protein, UniProt P0A7H3 1-242, looked up)
chain: MEGWQRAFVLHSRPWSETSLMLDVFTEESGRVRLVAKGARSKRSTLKGALQPFTPLLLRFGGRGEVKTLRSAEAVSLALPLSGITLYSGLYINELLSRVLEYETRFSELFFDYLHCIQSLAGVTGTPEPALRRFELALLGHLGYGVNFTHCAGSGEPVDDTMTYRYREEKGFIASVVIDNKTFTGRQLKALNAREFPDADTLRAAKRFTRMALKPYLGGKPLKSRELFRQFMPKRTVKTHYE
- stoichiometry N: 1 RecO per SSB C-terminal tail (four tails per tetramer)
